*1 amine or outer side, *2 acyl side, *3 side chain or, on linkers, in order; H or OH if unused. Where no end group is shown, it is not given here. Side-chain parts run from the residue outwards. [ ]: non-standard residue; d: D form. The star is where a group is joined. C16 diacid = O=C(O)CCCCCCCCCCCCCCC(=O)*; γGlu = O=C(O)[C@H](CCC(=O)[*:2])N[*:1]; AEEA = NCCOCCOCC(=O)O; Aib = CC(C)(N)C(=O)O
How the values were obtained:
human GIP receptor = target: T1, human GIP receptor (human, UniProt P48546 22-466); assay: cell-based or functional assay
T1 sequence (looked up): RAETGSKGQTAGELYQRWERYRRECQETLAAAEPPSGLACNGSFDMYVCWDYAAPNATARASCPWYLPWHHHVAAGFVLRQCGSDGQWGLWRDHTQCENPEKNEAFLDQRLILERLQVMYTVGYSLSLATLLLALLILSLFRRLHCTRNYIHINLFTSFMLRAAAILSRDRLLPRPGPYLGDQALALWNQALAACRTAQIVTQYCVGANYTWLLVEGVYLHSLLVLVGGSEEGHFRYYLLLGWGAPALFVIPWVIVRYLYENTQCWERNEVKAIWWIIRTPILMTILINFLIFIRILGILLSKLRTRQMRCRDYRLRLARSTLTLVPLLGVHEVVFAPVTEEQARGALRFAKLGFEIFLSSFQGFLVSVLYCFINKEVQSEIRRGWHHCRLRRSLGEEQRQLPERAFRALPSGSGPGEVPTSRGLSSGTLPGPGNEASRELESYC

human GLP-1 receptor = human GLP-1 receptor (human, UniProt P43220 24-463); assay: cell-based or functional assay

## human GIP (from UniProt P09681 52-93) (ligand)
Human GIP receptor
  hGIPR, CRE Luc 0% HSA EC50 (pM): 11.3 pM
  hGIPR, CRE Luc 1% HSA EC50 (pM): 6.4 pM

B1: Parent compound No. 2 (peptide)
peptide: Y[Aib]EGTFTSDYSILLEEQAAREFIEWLLAGGPSKGAPPPS-OH
modifications: not fully specified (residue 33)
Human GIP receptor
  hGIPR, CRE Luc 0% HSA EC50 (pM): 1.8 pM
  hGIPR, CRE Luc 1% HSA EC50 (pM): 97 pM
Human GLP-1 receptor
  hGLP-1R, CRE Luc 0% HSA EC50 (pM): 1.5 pM
  hGLP-1R, CRE Luc 1% HSA EC50 (pM): 111 pM

B2: Parent compound No. 3 (peptide)
peptide: Y[Aib]EGTFTSDYSILLEEQAAREFIEWLLAGGPSKGAPPPS-OH
modifications: not fully specified (residue 33)
Human GIP receptor
  hGIPR, CRE Luc 0% HSA EC50 (pM): 5.6 pM
  hGIPR, CRE Luc 1% HSA EC50 (pM): 444 pM
Human GLP-1 receptor
  hGLP-1R, CRE Luc 0% HSA EC50 (pM): 4 pM
  hGLP-1R, CRE Luc 1% HSA EC50 (pM): 360 pM

B3: Parent compound No. 4 (peptide)
peptide: Y[Aib]EGTFTSDYSILLEKQAAREFIEWLLAGGPSSGAPPPS-OH
modifications: not fully specified (residue 16)
Human GIP receptor
  hGIPR, CRE Luc 0% HSA EC50 (pM): 4.7 pM
  hGIPR, CRE Luc 1% HSA EC50 (pM): 188 pM
Human GLP-1 receptor
  hGLP-1R, CRE Luc 0% HSA EC50 (pM): 4.2 pM
  hGLP-1R, CRE Luc 1% HSA EC50 (pM): 202 pM

B4: Parent compound No. 1 (peptide)
peptide: Y[Aib]EGTFTSDYSILLEEQAAREFIEWLLAGGPSK([AEEA-AEEA-γGlu-C16 diacid])GAPPPS-OH
modifications: N-terminus assumed
SMILES: CC[C@H](C)[C@H](NC(=O)[C@H](Cc1ccccc1)NC(=O)[C@H](CCC(=O)O)NC(=O)[C@H](CCCNC(=N)N)NC(=O)[C@H](C)NC(=O)[C@H](C)NC(=O)[C@H](CCC(N)=O)NC(=O)[C@H](CCC(=O)O)NC(=O)[C@H](CCC(=O)O)NC(=O)[C@H](CC(C)C)NC(=O)[C@H](CC(C)C)NC(=O)[C@@H](NC(=O)[C@H](CO)NC(=O)[C@H](Cc1ccc(O)cc1)NC(=O)[C@H](CC(=O)O)NC(=O)[C@H](CO)NC(=O)[C@@H](NC(=O)[C@H](Cc1ccccc1)NC(=O)[C@@H](NC(=O)CNC(=O)[C@H](CCC(=O)O)NC(=O)C(C)(C)NC(=O)[C@@H](N)Cc1ccc(O)cc1)[C@@H](C)O)[C@@H](C)O)[C@@H](C)CC)C(=O)N[C@@H](CCC(=O)O)C(=O)N[C@@H](Cc1c[nH]c2ccccc12)C(=O)N[C@@H](CC(C)C)C(=O)N[C@@H](CC(C)C)C(=O)N[C@@H](C)C(=O)NCC(=O)NCC(=O)N1CCC[C@H]1C(=O)N[C@@H](CO)C(=O)N[C@@H](CCCCNC(=O)COCCOCCNC(=O)COCCOCCNC(=O)CC[C@H](NC(=O)CCCCCCCCCCCCCCC(=O)O)C(=O)O)C(=O)NCC(=O)N[C@@H](C)C(=O)N1CCC[C@H]1C(=O)N1CCC[C@H]1C(=O)N1CCC[C@H]1C(=O)N[C@@H](CO)C(=O)O
Human GIP receptor
  hGIPR, CRE Luc 0% HSA EC50 (pM): 3.1 pM
  hGIPR, CRE Luc 1% HSA EC50 (pM): 156 pM
Human GLP-1 receptor
  hGLP-1R, CRE Luc 0% HSA EC50 (pM): 2.1 pM
  hGLP-1R, CRE Luc 1% HSA EC50 (pM): 154 pM
